According to PMC10069731 (2023):

Target: SARS-CoV-2 WT RBD (SARS-CoV-2, UniProt P0DTC2)
Test: BLI

B1: rabbit monoclonal antibody (RmAb) 1H1, IgG (antibody, V domains shown)
VH: QSLEESGGDLVKPGASLTLTCTASGFSFSSGYDMCWVRQAPGKGLEWIACIGTGSSGNIYYASWAKGRFTISKTSSTTVTLQMTSLTAADTATYFCARDDADYAGPDYFNLWGPGTLVTVSS
VL: DIVMTQTPASVSEPVGGTVTIKCQASESISNWLAWYQQKPGQPPKLLIYAAFTLASGVPSRFKGSGSGTQFTLTINGVECADAATYYCQQTYSSRDVDNVFGGGTEVVVK
Kd: 0.0898 nM
